Assay [1] deals with T1, IL-15 receptor subunit on CTLL-2 cells.
T1 sequence (Q60819 whole entry, species assumed, looked up): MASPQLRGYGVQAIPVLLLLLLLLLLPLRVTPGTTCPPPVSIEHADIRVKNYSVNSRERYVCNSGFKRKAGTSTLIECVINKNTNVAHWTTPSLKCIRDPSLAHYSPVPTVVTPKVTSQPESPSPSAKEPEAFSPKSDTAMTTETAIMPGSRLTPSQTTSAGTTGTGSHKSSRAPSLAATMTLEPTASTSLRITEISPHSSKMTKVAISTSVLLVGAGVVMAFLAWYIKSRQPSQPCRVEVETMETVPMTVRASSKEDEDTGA
The assay can be described thus: cell-based or functional assay.

Assay [2] has the same target. The assay can be described thus: cell-based or functional assay. This is another data set of the same source.

Where no end group is shown, it is not given here. [ ]: non-standard residue; d: D form.

On to KVT[dA]MKCFLL-NH2 [Peptide 5], for which the “IC50 in the CTLL-2 cell proliferation assay” value (“IC50” below) in assay [1] turned out to be 28 µM.
Regarding KVT[dA]MKCFLL-NH2 (also: disulfide-linked homodimer through the Cys) [Peptide 12], in assay [2], the “antagonist effect on IL-15-induced proliferation, fold against Peptide 1” value stood at 16 times and the “antagonist effect on IL-15-induced proliferation, fold against Peptide 5” value was found to be 3 times. The “IC50” value in assay [1] was 8 µM.
Consider KVTAMKCFLL (not fully specified (C-terminus)) [Peptide 1], for which the “IC50” value in assay [1] was found to be 130 µM.
